Laboratory results: paper PMC10703783, “Programmed cell death 11 modulates but not entirely relies on p53-HDM2 loop to facilitate G2/M transition in colorectal cancer cells” (Oncogenesis, 2023)

B1: GST-tagged HDM2 (349-497) (domain or fragment, UniProt Q00987-11 349-497, looked up)
chain: EKAKLENSTQAEEGFDVPDCKKTIVNDSRESCVEENDDKITQASQSQESEDYSQPSTSSSIIYSSQEDVKEFEREETQDKEESVESSLPLNAIEPCVICQGRPKNGCIVHGKTGHLMACFTCAKKLKKRNKPCPVCRQPIQMIVLTYFP
notes: source: expressed and purified
B2: His-S-tagged PDCD11 (1033-1431) (domain or fragment, human, UniProt Q14690 1033-1431, looked up)
chain: LSIGDMVTGTVKSIKPTHVVVTLEDGIIGCIHASHILDDVPEGTSPTTKLKVGKTVTARVIGGRDMKTFKYLPISHPRFVRTIPELSVRPSELEDGHTALNTHSVSPMEKIKQYQAGQTVTCFLKKYNVVKKWLEVEIAPDIRGRIPLLLTSLSFKVLKHPDKKFRVGQALRATVVGPDSSKTLLCLSLTGPHKLEEGEVAMGRVVKVTPNEGLTVSFPFGKIGTVSIFHMSDSYSETPLEDFVPQKVVRCYILSTADNVLTLSLRSSRTNPETKSKVEDPEINSIQDIKEGQLLRGYVGSIQPHGVFFRLGPSVVGLARYSHVSQHSPSKKALYNKHLPEGKLLTARVLRLNHQKNLVELSFLPGDTGKPDVLSASLEGQLTKQEERKTEAEERDQKG
notes: as for B1

What was measured:
Assay in all cases: pull-down; GST pulldown in vitro; GST-tagged p53 or HDM2 (full length or truncations) as bait, His-S-tagged PDCD11 (full length or truncations) as prey
Conditions in all cases: both partners purified
[1] = molecular target: T1, His-S-tagged full-length PDCD11 (programmed cell death 11) (human, UniProt Q14690 1-1871)
T1 construct: programmed cell death 11 (PDCD11), human, Gene ID 22984, 1871 amino acids, full length; also called PDCD11-FL; ALG-4; source: expressed and purified
T1 sequence (Q14690 whole entry): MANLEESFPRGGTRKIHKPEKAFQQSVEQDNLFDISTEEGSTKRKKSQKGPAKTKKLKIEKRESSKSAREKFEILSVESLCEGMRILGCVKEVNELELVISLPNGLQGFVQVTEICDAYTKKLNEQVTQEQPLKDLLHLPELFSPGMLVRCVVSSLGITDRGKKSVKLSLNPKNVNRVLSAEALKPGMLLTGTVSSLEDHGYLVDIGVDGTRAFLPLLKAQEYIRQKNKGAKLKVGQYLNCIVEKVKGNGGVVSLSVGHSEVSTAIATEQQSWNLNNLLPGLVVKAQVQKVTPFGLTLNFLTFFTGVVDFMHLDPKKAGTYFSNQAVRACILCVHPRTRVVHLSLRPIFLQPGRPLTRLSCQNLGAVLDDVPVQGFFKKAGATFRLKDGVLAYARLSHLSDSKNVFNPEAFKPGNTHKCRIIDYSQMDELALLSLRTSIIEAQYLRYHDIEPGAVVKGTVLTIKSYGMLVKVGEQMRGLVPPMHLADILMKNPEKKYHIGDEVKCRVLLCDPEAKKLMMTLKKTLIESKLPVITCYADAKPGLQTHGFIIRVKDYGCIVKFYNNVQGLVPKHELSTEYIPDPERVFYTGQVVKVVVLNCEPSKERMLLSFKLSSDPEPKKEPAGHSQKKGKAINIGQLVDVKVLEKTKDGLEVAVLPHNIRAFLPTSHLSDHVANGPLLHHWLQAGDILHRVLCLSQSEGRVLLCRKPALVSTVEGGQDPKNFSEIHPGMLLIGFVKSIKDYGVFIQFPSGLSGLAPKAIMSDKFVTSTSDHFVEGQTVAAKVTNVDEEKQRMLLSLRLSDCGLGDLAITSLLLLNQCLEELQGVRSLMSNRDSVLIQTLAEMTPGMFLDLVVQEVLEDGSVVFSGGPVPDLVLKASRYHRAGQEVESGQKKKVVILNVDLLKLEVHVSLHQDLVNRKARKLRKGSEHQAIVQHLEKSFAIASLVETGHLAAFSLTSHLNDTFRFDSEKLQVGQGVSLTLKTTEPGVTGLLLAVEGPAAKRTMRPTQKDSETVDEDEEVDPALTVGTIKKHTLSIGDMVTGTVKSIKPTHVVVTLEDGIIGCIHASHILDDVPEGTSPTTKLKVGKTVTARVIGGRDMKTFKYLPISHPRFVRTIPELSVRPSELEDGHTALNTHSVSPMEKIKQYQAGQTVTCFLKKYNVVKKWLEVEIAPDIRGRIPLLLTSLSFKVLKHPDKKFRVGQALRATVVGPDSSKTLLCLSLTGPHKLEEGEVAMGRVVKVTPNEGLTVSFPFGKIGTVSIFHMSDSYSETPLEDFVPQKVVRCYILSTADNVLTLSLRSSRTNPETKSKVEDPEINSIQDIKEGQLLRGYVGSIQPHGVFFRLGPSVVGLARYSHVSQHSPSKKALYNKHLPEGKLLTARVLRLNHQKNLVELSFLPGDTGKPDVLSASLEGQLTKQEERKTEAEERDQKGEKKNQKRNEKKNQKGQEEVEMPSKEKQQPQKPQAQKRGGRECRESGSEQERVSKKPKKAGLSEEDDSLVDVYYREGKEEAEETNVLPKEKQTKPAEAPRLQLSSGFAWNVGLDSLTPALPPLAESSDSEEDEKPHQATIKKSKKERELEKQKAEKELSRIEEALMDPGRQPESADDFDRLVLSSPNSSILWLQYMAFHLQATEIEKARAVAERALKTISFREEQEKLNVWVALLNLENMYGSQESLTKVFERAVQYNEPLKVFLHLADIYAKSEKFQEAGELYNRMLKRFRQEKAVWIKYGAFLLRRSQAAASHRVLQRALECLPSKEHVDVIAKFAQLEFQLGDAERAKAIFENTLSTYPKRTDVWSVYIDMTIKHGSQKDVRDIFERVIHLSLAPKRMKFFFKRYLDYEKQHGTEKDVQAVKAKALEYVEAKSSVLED

[2] = molecular target: B2
[3] = molecular target: T2, GST-tagged full-length HDM2 (UniProt Q00987-11 1-497)
T2 construct: HDM2, full length; also called HDM2-FL; GST-HDM2; source: expressed and purified

Row | Binder | binding result [1] | binding result [2] | binding result [3]
1 | B1 | binds | binds | –
2 | B2 | – | – | binds
